The subject of data set [1] is Maize Immature Embryos. The experiment in a line: Selection of Agrobacterium-transformed immature embryos on herbicide-containing medium. It counts as cell-based, Zea mays. To be noted: Selection Medium I containing 100 nM R-Haloxyfop acid. An excerpt:
Agrobacterium-mediated transformation was used to stably integrate a chimeric gene into the plant genome, and thus generate transgenic maize cells, tissues, and plants that produce AAD1 mRNAs having miRNA target sites within the mRNA. Control tissues having no miRNA target sites in the AAD1 mRNA were also produced. Transformed tissues were selected by their ability to grow on Haloxyfop-or Bialaphos-containing medium.
Callus Selection and Regeneration of Transgenic Events: Following the co-cultivation period, embryos were transferred to Resting Medium (4.33 g/L MS salts; 1× ISU Modified MS Vitamins; 30 g/L sucrose; 700 mg/L L-proline; 3.3 mg/L Dicamba in KOH; 100 mg/L myo-inositol; 100 mg/L Casein Enzymatic Hydrolysate; 15 mg/L AgNO3; 0.5 g/L MES (2-(N-morpholino) ethanesulfonic acid monohydrate; PHYTOTECHNOLOGIES LABR.; Lenexa, K S); 250 mg/L Cefotaxime; and 7.0 gm/L agar; at pH 5.8). No more than 36 embryos were moved to each plate. The plates were wrapped with Micropore™ tape and incubated at 27° C. with continuous light at approximately 50 μmol m^−2s^−1 light intensity for 7 to 10 days. […]

In data set [2] the test system is Maize Immature Embryos. Briefly: Transient AAD1 expression in immature embryos after particle bombardment, ELISA. The following applies: 24 hours after particle bombardment; co-bombardment plasmid pDAB112378 (artificial miRNA). It counts as cell-based, Zea mays. An excerpt: Zea mays embryos from inbred line B104 that express AAD1 mRNAs having miRNA target sites within the mRNA were produced. Control tissues having no miRNA target sites in the AAD1 mRNA, or having no AAD1 gene expression cassette, were also produced. Other control tissues were produced that had only a YFP gene expression cassette (and no AAD1 construct). Preparations of plant transformation DNA molecules constructed as described in EXAMPLE 2 were delivered into maize B104 immature embryos via particle bombardment transformation.
Plasmid DNAs of pDAB112375, pDAB112376, pDAB112377, pDAB113016, pDAB100286, pDAB112378 and pDAB112330 were isolated and purified from Escherichia coli by standard techniques, and diluted in TE buffer (10 mM Tris HCl plus 1 mM EDTA, pH 8) to 1.0 μg/μL.
Embryo isolation and culture: (Day 1) Surface-sterilized B104 immature ears (10 to 12 days post-pollination) were used for the isolation of embryos. Excised immature embryos from 3 to 4 ears were pooled into 2 mL microfuge tubes containing 2.0 mL liquid medium (LS basal medium (Linsmaier and Skoog, (1965) Physiologia Plantarum 18:100-27) containing CHU N6 vitamins (Chu et al. (1975) Scientia Sinica 18:659-68), 700 mg/L L-Proline, 68.5 gm/L sucrose, 36 gm/L D(+) glucose, and 1.5 mg/L 2,4-D). After embryo isolation, the liquid medium was removed and discarded. Embryos were removed and placed onto plates (40 embryos per plate) containing a semi-solid osmotic medium (MS basal medium (Murashige and Skoog, (1962) Physiologia Plantarum 15:473-497), 2 mg/L Glycine, 500 μg/L Thiamine, 500 μg/L Pyroxidine, 50 μg/L Nicotinic Acid., 120 gm/L sucrose, 100 mg/L myo-inositol, and 2.4 gm/L GELRITE). The embryos were arranged in a […] within the target area for particle bombardment. Three replicate plates were prepared for each construct to be tested. All plates were incubated at 28° C. under continuous low light (50 μEm^−2 sec^−1) for 24 hours prior to particle bombardment.
Coating gold particles with DNA: (Day 2) Tubes of frozen gold particles glycerol stock were thawed on ice for a few minutes, then vortexed for 2 minutes at high speed until a uniform gold suspension was produced. Gold suspension was pipetted into sterile microcentrifuge tubes (50 μL each), with an intermediate vortexing of the particle stock between each tube to maintain a uniform suspension. 2.5 μg each of appropriate plasmid DNAs were included. […]
ELISA quantification of AAD1 and PAT proteins: Enzyme Linked Immunosorbant Assays (ELISAs) were used to measure the production of AAD1 and PAT proteins in maize cells and stably-transformed tissues. […]
For orientation: ELISA stands for enzyme-linked immunosorbent assay.

We go through 1 molecule from patent publication US12649925B2, “Tissue-specific expression and hybrid plant production” (Dow AgroSciences LLC, priority 2013, dated 2026).

B1: pDAB112376: Transient construct: ZmUbilv2/AAD1 v3/WT miR529 target site with miR156 site mutated/ZmPer5 3′UTR (SEQ ID NO:9) (nucleic acid)
DNA: ATGGCTCATGCTGCCCTCAGCCCTCTCTCCCAACGCTTTGAGAGAATAGCTGTCCAGCCACTCACTGGTGTCCTTGGTGCTGAGATCACTGGAGTGGACTTGAGGGAACCACTTGATGACAGCACCTGGAATGAGATATTGGATGCCTTCCACACTTACCAAGTCATCTACTTTCCTGGCCAAGCAATCACCAATGAGCAGCACATTGCATTCTCAAGAAGGTTTGGACCAGTTGATCCAGTGCCTCTTCTCAAGAGCATTGAAGGCTATCCAGAGGTTCAGATGATCCGCAGAGAAGCCAATGAGTCTGGAAGGGTGATTGGTGATGACTGGCACACAGACTCCACTTTCCTTGATGCACCTCCAGCTGCTGTTGTGATGAGGGCCATAGATGTTCCTGAGCATGGCGGAGACACTGGGTTCCTTTCAATGTACACAGCTTGGGAGACCTTGTCTCCAACCATGCAAGCCACCATCGAAGGGCTCAACGTTGTGCACTCTGCCACACGTGTGTTCGGTTCCCTCTACCAAGCACAGAACCGTCGCTTCAGCAACACCTCAGTCAAGGTGATGGATGTTGATGCTGGTGACAGAGAGACAGTCCATCCCTTGGTTGTGACTCATCCTGGCTCTGGAAGGAAAGGCCTTTATGTGAATCAAGTCTACTGTCAGAGAATTGAGGGCATGACAGATGCAGAATCAAAGCCATTGCTTCAGTTCCTCTATGAGCATGCCACCAGATTTGACTTCACTTGCCGTGTGAGGTGGAAGAAAGACCAAGTCCTTGTCTGGGACAACTTGTGCACCATGCACCGTGCTGTTCCTGACTATGCTGGCAAGTTCAGATACTTGACTCGCACCACAGTTGGTGGAGTTAGGCCTGCCCGCTGAGTAGTTAGCTTAATCACCTAGAGCTCGACTCAGGCTGTACTCTCTTACTTCACAAAGTACTCAGGTAACCTTTAAACTGAGGGCACTGAAGTCGCTTGATGTGCTGAATTGTTTGTGATGTTGGTGGCGTATTTTGTTTAAATAAGTAAGCATGGCTGTGATTTTATCATATGATCGATCTTTGGGGTTTTATTTAACACATTGTAAAATGTGTATCTATTAATAACTCAATGTATAAGATGTGTTCATTCTTCGGTTGCCATAGATCTGCTTATTTGACCTGTGATGTTTTGACTCCAAAAACCAAAATCACAACTCAATAAACTCATGGAATATGTCCACCTGTTTCTTGAAGAGTTCATCTACCATTCCAGTTGGCATTTATCAGTGTTGCAGCGGCGCTGTGCTTTGTAACATAACAATTGTTACGGCATATATCCAA
modifications: pDAB112377 expression cassette; (918)..(954) modified tsh4 target site; (969)..(1333) ZmPer5 3′UTR
As to B1, in the data set on Maize Immature Embryos [1], the “fate of transformed embryos on Haloxyfop-containing medium” value is “grew on Haloxyfop-containing medium and regenerated transgenic plants”. Moreover, the “Mean AAD1 Amount” value with Maize Immature Embryos [2] was 317 ng/mL.
